Measured values from patent US20080044360A1.
Bridge positions count the residues as written; N and C are the ends. Square brackets hold non-standard residues; d marks the D form. Primed or numbered codes have the meaning given here. Ends that are not written are not given here. Tyr(3-Cl) = N[C@@H](Cc1ccc(O)c(Cl)c1)C(=O)O; Gd^T″ = GdDTPA-thiourea; Dap = NC[C@H](N)C(=O)O

Legend:
[1] = molecular target: human collagen type I, acid soluble, extracted from placenta (Sigma C7774) (human) (UniProt P02452); experiment: dried collagen assay
[2] = molecular target: rat collagen, acid soluble, type I, rat tail (Upstate 08-115) (rat) (UniProt P02454); experiment: dried collagen assay
Sequence of rat collagen, acid soluble, type I, rat tail (Upstate 08-115) (rat) (P02454 152-1207, chain 1 of 2): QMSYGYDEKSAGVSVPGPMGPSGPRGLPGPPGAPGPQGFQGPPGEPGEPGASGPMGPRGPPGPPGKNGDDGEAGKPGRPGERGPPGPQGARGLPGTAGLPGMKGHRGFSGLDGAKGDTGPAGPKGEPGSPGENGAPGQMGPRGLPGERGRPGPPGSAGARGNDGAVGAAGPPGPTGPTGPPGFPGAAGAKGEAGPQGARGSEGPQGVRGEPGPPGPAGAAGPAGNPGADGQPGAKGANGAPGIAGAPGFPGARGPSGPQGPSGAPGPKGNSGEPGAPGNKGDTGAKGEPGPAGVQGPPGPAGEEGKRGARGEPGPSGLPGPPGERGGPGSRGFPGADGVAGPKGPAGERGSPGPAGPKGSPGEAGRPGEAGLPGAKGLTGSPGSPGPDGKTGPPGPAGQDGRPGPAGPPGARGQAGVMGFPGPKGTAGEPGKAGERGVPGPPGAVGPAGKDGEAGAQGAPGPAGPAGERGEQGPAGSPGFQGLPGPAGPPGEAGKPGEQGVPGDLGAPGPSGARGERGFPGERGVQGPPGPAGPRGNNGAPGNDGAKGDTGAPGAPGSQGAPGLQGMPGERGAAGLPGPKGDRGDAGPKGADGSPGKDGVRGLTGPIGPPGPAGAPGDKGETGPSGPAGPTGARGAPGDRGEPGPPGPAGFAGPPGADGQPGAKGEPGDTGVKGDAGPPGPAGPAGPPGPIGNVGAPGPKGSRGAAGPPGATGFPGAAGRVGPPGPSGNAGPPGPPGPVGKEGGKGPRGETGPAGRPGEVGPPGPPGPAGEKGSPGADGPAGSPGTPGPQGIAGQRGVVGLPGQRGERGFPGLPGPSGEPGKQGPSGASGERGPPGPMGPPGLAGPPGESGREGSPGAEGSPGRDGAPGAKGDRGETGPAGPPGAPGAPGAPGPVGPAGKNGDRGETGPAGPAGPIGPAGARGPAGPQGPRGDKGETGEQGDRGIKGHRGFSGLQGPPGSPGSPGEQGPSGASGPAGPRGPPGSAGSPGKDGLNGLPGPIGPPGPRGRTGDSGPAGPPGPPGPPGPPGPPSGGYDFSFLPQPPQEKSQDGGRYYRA
Sequence of rat collagen, acid soluble, type I, rat tail (Upstate 08-115) (rat) (P02466 86-1125, chain 2 of 2, further chain): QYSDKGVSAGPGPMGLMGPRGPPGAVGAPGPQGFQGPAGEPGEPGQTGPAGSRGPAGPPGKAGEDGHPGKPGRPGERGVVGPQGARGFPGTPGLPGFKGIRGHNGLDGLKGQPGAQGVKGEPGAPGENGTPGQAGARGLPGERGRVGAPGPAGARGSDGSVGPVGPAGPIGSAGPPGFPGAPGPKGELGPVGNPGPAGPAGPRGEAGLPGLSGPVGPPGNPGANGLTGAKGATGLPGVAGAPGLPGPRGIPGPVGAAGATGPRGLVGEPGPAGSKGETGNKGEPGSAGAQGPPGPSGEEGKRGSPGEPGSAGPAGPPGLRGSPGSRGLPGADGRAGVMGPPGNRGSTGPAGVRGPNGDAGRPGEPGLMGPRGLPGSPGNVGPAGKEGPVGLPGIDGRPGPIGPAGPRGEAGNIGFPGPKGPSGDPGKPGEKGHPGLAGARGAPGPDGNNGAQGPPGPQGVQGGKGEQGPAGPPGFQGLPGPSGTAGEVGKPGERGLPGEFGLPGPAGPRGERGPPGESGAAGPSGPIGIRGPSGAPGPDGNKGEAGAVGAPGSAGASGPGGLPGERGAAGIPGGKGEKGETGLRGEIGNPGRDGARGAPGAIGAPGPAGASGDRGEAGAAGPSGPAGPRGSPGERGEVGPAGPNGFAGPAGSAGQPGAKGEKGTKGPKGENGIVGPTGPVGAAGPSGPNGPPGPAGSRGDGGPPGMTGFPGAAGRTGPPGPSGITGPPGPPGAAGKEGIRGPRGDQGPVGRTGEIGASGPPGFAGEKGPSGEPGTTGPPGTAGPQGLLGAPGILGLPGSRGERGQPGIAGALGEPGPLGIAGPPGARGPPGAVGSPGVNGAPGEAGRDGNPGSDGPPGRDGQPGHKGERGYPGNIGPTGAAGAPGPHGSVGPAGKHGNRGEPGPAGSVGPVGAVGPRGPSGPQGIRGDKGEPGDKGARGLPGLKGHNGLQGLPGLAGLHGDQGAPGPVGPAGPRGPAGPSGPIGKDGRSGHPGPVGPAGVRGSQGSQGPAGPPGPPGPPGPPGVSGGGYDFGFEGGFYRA

Sequence of human collagen type I, acid soluble, extracted from placenta (Sigma C7774) (human) (P02452 162-1218 limits assumed, chain 1 of 2): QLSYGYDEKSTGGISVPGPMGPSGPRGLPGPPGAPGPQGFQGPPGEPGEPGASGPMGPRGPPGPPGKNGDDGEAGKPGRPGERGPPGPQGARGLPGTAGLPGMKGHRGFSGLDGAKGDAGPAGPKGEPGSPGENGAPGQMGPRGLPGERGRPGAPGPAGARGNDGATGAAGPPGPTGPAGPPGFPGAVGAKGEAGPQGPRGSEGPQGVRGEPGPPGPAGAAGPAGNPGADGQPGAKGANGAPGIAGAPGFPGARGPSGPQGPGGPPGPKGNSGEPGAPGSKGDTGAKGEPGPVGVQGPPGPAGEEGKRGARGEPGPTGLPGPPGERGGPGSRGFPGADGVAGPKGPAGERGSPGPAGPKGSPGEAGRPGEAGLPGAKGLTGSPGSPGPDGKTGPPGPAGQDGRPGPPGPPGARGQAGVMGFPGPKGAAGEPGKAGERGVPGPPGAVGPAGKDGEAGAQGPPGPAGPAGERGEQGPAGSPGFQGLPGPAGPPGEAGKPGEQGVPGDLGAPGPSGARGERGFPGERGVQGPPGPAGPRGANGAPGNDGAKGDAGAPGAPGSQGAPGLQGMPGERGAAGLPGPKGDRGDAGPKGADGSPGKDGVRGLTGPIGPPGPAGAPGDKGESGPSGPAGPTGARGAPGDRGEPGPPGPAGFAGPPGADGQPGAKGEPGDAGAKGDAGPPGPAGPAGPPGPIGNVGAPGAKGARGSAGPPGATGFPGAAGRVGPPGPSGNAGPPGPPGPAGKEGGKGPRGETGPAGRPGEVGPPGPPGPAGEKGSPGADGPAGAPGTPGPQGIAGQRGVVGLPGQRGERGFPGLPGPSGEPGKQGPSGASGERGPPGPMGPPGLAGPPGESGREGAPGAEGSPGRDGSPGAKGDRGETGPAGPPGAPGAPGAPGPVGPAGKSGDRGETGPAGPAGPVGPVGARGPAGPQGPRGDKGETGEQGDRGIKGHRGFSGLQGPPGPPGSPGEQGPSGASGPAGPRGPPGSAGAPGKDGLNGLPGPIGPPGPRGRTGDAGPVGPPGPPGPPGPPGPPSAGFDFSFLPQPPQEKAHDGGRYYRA
Sequence of human collagen type I, acid soluble, extracted from placenta (Sigma C7774) (human) (P08123 80-1119 limits assumed, chain 2 of 2, further chain): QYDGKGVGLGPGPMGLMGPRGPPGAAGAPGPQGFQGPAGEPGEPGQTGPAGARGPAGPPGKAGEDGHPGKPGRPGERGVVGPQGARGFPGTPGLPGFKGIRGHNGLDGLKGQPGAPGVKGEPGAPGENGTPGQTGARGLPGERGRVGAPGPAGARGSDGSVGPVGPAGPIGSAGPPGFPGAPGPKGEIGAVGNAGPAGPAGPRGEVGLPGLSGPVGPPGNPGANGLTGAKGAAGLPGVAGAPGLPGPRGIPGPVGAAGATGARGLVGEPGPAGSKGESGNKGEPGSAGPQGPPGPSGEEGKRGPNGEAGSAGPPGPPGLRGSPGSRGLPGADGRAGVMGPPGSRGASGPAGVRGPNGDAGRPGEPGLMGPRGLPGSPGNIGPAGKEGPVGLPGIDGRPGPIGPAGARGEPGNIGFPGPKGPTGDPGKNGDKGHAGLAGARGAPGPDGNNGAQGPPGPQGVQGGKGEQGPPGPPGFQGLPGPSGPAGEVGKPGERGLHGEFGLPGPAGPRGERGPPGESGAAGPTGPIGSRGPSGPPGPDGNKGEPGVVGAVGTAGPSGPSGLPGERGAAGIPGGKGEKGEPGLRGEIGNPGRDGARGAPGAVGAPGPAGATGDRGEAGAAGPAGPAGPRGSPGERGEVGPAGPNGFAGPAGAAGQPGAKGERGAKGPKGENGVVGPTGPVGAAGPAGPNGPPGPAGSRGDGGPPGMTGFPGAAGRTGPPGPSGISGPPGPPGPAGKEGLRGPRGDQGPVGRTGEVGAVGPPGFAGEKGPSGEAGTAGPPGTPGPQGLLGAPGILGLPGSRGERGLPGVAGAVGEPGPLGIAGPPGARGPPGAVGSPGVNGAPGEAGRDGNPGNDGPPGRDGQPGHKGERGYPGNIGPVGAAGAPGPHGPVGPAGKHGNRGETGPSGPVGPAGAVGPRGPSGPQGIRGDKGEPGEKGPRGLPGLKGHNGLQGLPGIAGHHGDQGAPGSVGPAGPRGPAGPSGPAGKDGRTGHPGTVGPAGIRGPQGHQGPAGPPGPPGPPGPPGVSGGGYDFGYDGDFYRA

| Binder | % bound [1] [%] | % bound [2] [%] |
| --- | --- | --- |
| {Gd^T″}-GQWHCT[dS]RFPHHYCLYG (disulfide 5-14 (inferred); not fully specified (C-terminus)) [Compound ID 898] | 5 |  |
| KWECVHTKGEWYCETK (disulfide 4-13 (inferred)) [SEQ ID NO 65] | 7 |  |
| QWT[dC]SGDEYTWHCNYE (disulfide 4-13 (inferred); not fully specified (N-terminus, C-terminus); printed as QWTcSGDEYTWHCNYE) [SEQ ID NO 167] | 4 |  |
| GWSCHSMDMQWHCDFS (disulfide 4-13 (inferred)) [SEQ ID NO 67] | 5 |  |
| LWTCSMDRNYDWVCGEK (disulfide 4-14 (inferred)) [SEQ ID NO 82] | 3 |  |
| {Gd^T″}-GQWTCSGDEYAWHCNY[dE] (disulfide 5-14 (inferred); not fully specified (C-terminus)) [Compound ID 832] |  | 4 |
| {Gd^T″}-GQWHCTTRFPHH[dT]CLYG (disulfide 5-14 (inferred); not fully specified (C-terminus)) [Compound ID 905] | 6 |  |
| GQWTCSADEYTWHCNYE (disulfide 5-14 (inferred)) [SEQ ID NO 142] |  | 6 |
| YHACYQAGCYIY (disulfide 4-9 (inferred)) [SEQ ID NO 108] | 5 |  |
| RWSCVLDADGWVCSDN (disulfide 4-13 (inferred)) [SEQ ID NO 66] | 6 |  |
| {Gd^T″}-GQWHCT[dR]RFPHHYCLYG (disulfide 5-14 (inferred); not fully specified (C-terminus)) [Compound ID 900] | 4 |  |
| SWYCNNGSYGQWHCEHR (disulfide 4-14 (inferred)) [SEQ ID NO 80] | 6 |  |
| QWTCSGDE[dY]TWHCNYE (disulfide 4-13 (inferred); not fully specified (N-terminus); printed as QWTCSGDEyTWHCNYE) [SEQ ID NO 171] |  | 6 |
| YHACYQAG[dC]WIW (disulfide 4-9 (inferred); not fully specified (C-terminus); printed as YHACYQAGcWIW) [SEQ ID NO 159] | 7 |  |
| GQWTCSGDEYTAHCNYE (disulfide 5-14 (inferred); not fully specified (C-terminus)) [SEQ ID NO 147] | 5 |  |
| SWSCGGDHNAWKCQYS (disulfide 4-13 (inferred)) [SEQ ID NO 36] | 7 |  |
| YHACYQAGCYIW (disulfide 4-9 (inferred)) [SEQ ID NO 107] |  | 6 |
| SWHCFLENHHWMCSDH (disulfide 4-13 (inferred)) [SEQ ID NO 68] | 5 |  |
| QWTCSG[dD]EYTWHCNYE (disulfide 4-13 (inferred); not fully specified (N-terminus); printed as QWTCSGdEYTWHCNYE) [SEQ ID NO 169] |  | 4 |

Next, values leading:

| % bound [1] [%] | % bound [2] [%] | Binder |
| --- | --- | --- |
| 3 |  | QWFCEMDEYGKWNCGMM (disulfide 4-14 (inferred)) [SEQ ID NO 81] |
| 7 |  | {Gd^T″}-GQWHCTTRFPHH[dR]CLYG (disulfide 5-14 (inferred); not fully specified (C-terminus)) [Compound ID 902] |
| 4 |  | {Gd^T″}-GQWHCT[dN]RFPHHYCLYG (disulfide 5-14 (inferred); not fully specified (C-terminus)) [Compound ID 897] |
| 7 |  | {Gd^T″}-GQWHCTTD[Tyr(3-Cl)]PHHYCLYG (disulfide 5-14 (inferred); not fully specified (C-terminus)) [Compound ID 895] |
| 5 |  | QWTCSGDEYTW[dH]CNYE (disulfide 4-13 (inferred); not fully specified (N-terminus); printed as QWTCSGDEYTWhCNYE) [SEQ ID NO 174] |
| 7 |  | LWNCHGTDANWKCVLN (disulfide 4-13 (inferred)) [SEQ ID NO 37] |
| 6 |  | GWQCSGDASVWNCDWI (disulfide 4-13 (inferred)) [SEQ ID NO 39] |
| 8 |  | {Gd^T″}-GQWHCTTDFPH[Dap]YCLYG (disulfide 5-14) [Compound ID 886] |
| 3 |  | GWACNTTSKGDWECTNL (disulfide 4-14 (inferred)) [SEQ ID NO 83] |
| 6 |  | GWSCHGDAADWPCQWS (disulfide 4-13 (inferred)) [SEQ ID NO 38] |
| 2 |  | PWWCHEMPSMCFGF (disulfide 4-11 (inferred)) [SEQ ID NO 3] |
| 3 |  | HWSCDLAMDNEWFCSTK (disulfide 4-14 (inferred)) [SEQ ID NO 84] |
| 3 |  | GWTCSQPGANVWNCTMQ (disulfide 4-14 (inferred)) [SEQ ID NO 85] |
| 5 |  | WQVCADSPGVITYCYTY (disulfide 4-14 (inferred)) [SEQ ID NO 98] |
| 3 |  | FSECVWVNAYQCEYF (disulfide 4-12 (inferred)) [SEQ ID NO 113] |
| 3 |  | AKKCWYNDGGHLRCRTL (disulfide 4-14 (inferred)) [SEQ ID NO 99] |
